Test results published in patent US20050276784A1.

Columns and labels:
[1] = molecular target: c-kit receptor (wild type), on mast cells and on NIH ψ2 cells expressing the c-kit cDNA (mouse) (UniProt P05532)
[2] = molecular target: c-kit receptor of the W^v allele, on W^v/W^v mast cells (mouse) (UniProt P05532)

KL (c-kit ligand), soluble form purified from conditioned medium of Balb/3T3 fibroblasts (from UniProt P20826)
half maximal proliferation of +/+ mast cells (^3H-thymidine incorporation) (ng of protein in 0.2 ml) [1]: 0.5
proliferation of mast cells (^3H-thymidine incorporation) (% of +/+ values) [2]: 10
